T1: human IL-36R (on cells) (human, UniProt Q9HB29 20-575)
T1 sequence (looked up): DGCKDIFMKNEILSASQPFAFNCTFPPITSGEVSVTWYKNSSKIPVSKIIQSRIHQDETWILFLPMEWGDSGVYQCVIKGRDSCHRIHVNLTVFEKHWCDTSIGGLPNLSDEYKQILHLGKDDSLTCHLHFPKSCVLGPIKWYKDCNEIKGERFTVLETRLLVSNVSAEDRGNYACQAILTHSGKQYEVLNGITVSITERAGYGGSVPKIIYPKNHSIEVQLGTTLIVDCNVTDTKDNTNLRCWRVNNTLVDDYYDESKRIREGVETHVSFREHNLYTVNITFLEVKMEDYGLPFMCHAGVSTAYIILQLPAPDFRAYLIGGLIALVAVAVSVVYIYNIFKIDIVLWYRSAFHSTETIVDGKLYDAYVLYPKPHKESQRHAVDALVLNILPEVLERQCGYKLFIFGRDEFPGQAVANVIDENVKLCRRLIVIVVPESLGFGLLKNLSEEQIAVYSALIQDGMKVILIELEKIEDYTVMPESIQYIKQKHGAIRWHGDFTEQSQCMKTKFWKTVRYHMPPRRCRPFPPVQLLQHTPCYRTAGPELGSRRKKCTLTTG


What was measured:
Assay in all cases: cell-based or functional assay
[1] = biological target: T1, human IL-36R (on cells)
[2] = biological target: T1, human IL-36R (on cells); remark: listed apart in the source
[3] = biological target: cynomolgus IL-36R (on cells, allelic variant not stated) (cynomolgus monkey), A0A2K5
Chain of cynomolgus IL-36R (on cells, allelic variant not stated) (cynomolgus monkey), A0A2K5 (chain, as listed by the source mutant): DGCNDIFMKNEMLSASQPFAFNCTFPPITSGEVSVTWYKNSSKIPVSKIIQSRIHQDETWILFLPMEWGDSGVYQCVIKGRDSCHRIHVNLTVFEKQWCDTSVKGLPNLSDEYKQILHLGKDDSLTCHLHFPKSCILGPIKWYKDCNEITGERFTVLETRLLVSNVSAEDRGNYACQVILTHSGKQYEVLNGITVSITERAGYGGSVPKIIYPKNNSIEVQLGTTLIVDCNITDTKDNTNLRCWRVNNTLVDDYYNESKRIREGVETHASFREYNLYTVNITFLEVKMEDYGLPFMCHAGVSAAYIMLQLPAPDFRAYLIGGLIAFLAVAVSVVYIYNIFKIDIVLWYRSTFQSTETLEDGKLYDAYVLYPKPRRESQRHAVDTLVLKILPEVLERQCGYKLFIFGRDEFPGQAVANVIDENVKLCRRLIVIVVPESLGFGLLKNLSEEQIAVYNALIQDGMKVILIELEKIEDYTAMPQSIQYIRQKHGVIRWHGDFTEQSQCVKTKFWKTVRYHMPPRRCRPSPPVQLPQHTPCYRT

Row | EC50 (nM), HEK human IL-36R IL-8 luciferase reporter assay, 20 ng/ml hIL-36β [1] [nM] | EC50 (nM), HEK human IL-36R IL-8 luciferase reporter assay, 200 ng/ml hIL-36γ [1] [nM] | EC50 (nM), IL-8 secretion by primary human monocytes, human IL-36β [2] [nM] | EC50 (nM), IL-8 secretion by primary human monocytes, human IL-36γ [2] [nM] | EC50 (nM), HEK cyno IL-36R IL-8 luciferase reporter assay, 300 ng/ml cIL-36γ [3] [nM] | Binder
1 | 1.3 | 3.1 |  |  |  | Chimeric 5D3 (APE3849) (antibody, V domains shown) VH: QVQLQQSGPELVRPGASVRMSCKASDYTFTNYWMHWVKQRPGQGLEWIGMFDPSNSVTRLNQKFKDKATLNVDKSSNTAYIQFSSLTFEDSAVYYCARTTSMIIGGFAYWGQGTLVTVSS VL: DIVMTQAAFSNPVTLGTSASISCRSSKSLLHSNGITYFYWYLQRPGQSPQLLIYQMSNLASGVPDRFSGSGSGTDFTLRISRVEAEDVGIYYCAQNLELPLTFGAGTKLELK
2 | 0.267 | 0.093 |  |  |  | Chimeric 1D9 (APE3798) (antibody, V domains shown) VH: QVQLQQSGPELVKPGALVKISCKASGFTFTSYDINWVRQRPGQGLEWIGWIYPGDGSTKYNEKFKGKATLTADKSSSTAYMQLSSLTSENSAVYFCTRSFYTMDYWGQGTSVTVSS VL: DIVMTQAAPSVPVTPGESVSISCRSSKSLLHSNGNTYLYWFLQRPGQSPQLLISRMSNLASGVPDRFSGSGSGTAFTLRISRVEAEDVGVYYCMQHLEYPFTFGSGTKLEIK
3 |  | 11 |  |  |  | Hzd 18D4 (APE5713) (antibody, V domains shown) VH: QVQFQESGPGLVKPSQTLSLTCTVSGYSITSDFAWNWIRQPPGKGLEWIGYISYSGDTNYNPSLKSRVTISRDTSKNQFSLKLSSVTAADTAVYFCAIRGPYSFTYWGQGTLVTVSS VL: DIQMTQSPSSLSASVGDRVTITCRASQDINNYLNWYQQKPGKAPKLLIYYTSRLHSGVPSRFSPSGSGTDYTFTISSLQPEDIATYYCQQGHTLPWTFGGGTKVEIK
4 | 4.2 | 3.6 | 6 | 3 | 0.51 | Chimeric 18D4 (APE3847) (antibody, V domains shown) VH: DVQFQESGPGLVKPSQSLSLTCTVTGYSITSDFAWNWIRQFPGNKLEWMGYISYSGDTNYNPSLKSRISITRDTSKNQFFLQLNSVTTEDTATYFCAIRGPYSFTYWGPGTLVTVSS VL: DIQMTQTTSSLSASLGDRVTINCRASQDINNYLNWYQQKPDGTIRLLIYYTSRLHSGVPSRFSPNGSGTDYSLTINNLEQEDIATYFCQQGHTLPWTFGGGTKLEIK
